Values quoted from earlier work in PMC7337045.

Molecular target: IRS-1 phosphopeptide (UniProt P35570)
Sequence (P35570 whole entry, looked up, tested part not stated): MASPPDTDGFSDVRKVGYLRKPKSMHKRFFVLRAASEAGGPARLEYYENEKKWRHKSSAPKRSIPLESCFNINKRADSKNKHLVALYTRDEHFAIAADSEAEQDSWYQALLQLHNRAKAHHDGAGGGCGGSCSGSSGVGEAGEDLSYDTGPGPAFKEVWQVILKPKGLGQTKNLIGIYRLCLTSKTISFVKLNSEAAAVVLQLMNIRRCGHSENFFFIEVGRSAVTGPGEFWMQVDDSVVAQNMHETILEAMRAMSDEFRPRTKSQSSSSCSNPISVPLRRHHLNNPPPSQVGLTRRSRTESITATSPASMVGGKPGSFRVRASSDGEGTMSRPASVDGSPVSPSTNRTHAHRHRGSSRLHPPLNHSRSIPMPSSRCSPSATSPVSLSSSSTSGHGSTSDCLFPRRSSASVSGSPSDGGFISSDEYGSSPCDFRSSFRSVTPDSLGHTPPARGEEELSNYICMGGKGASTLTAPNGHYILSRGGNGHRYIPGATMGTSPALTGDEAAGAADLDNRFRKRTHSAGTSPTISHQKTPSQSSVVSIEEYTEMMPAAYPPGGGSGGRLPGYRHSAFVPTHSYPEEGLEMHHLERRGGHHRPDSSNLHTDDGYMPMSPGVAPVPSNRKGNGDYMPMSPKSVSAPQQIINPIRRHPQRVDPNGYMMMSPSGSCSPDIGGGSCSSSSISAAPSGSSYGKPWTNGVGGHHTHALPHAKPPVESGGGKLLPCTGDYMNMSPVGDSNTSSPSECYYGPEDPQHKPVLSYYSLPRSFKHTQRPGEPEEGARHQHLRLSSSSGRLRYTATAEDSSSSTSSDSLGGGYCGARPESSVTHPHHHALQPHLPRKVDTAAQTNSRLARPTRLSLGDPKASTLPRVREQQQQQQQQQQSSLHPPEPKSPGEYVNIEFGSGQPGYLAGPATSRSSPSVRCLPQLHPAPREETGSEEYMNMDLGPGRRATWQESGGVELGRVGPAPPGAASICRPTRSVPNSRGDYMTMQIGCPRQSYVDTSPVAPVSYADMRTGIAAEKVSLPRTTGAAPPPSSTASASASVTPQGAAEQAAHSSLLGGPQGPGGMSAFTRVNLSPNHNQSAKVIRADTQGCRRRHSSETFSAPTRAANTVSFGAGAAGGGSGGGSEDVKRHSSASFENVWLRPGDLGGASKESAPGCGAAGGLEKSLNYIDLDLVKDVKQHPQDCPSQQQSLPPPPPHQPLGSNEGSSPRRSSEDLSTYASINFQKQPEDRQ

## SHP2 N-SH2 (from UniProt Q06124)
  Kd: 14 nM
